Source: patent US20140302028A1

How the values were obtained:
[1] = molecular target: recombinant human FcRn (Sino Biological Inc.) (human) (UniProt P55899); assay: SPR (Biacore T100), human FcRn immobilised, pH 6, two-state model
[2] = molecular target: recombinant mouse FcRn (R&D Systems) (mouse) (UniProt Q61559); assay: SPR (Biacore T100), mouse FcRn immobilised, pH 6, two-state model
[3] = molecular target: recombinant human FcRn (Sino Biological Inc.) (human) (UniProt P55899); assay: SPR (Biacore T100), human FcRn immobilised, pH 6, two-state model, complex formation
[4] = molecular target: recombinant mouse FcRn (R&D Systems) (mouse) (UniProt Q61559); assay: SPR (Biacore T100), mouse FcRn immobilised, pH 6, two-state model, complex formation
[5] = molecular target: recombinant human FcRn (Sino Biological Inc.) (human) (UniProt P55899); assay: SPR (Biacore T100), human FcRn immobilised, pH 6, two-state model, complex stabilization
[6] = molecular target: recombinant mouse FcRn (R&D Systems) (mouse) (UniProt Q61559); assay: SPR (Biacore T100), mouse FcRn immobilised, pH 6, two-state model, complex stabilization

Kd [1]: 34 nM
Kd [2]: 6.66 nM
koff [3]: 0.313 s⁻¹
kon [3]: 5.99e+06 M⁻¹ s⁻¹
koff [4]: 0.0153 s⁻¹
kon [4]: 159000 M⁻¹ s⁻¹
kd (Complex Stabilization) [5]: 0.00155 s⁻¹
kd (Complex Stabilization) [6]: 0.000107 s⁻¹
Substance: HUMIRA ® (antibody)
